The source of these data is the supplement of paper PMC10567573.

± gives the standard deviation.

The data set can be described thus: protein stability index of a GFP-peptide fusion (GPS, HEK-293T) (PSI 1-6); higher = more stable.
Where [1] appears, read: treatment: DMSO, c terminus: a fixed tail appended.
Where [2] appears, read: treatment: MLN4924 1 uM, 8 h, c terminus: a fixed tail appended.
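Note: 24-mer peptide tiles fused after GFP, lentivirally expressed, FACS-sorted into six equal bins by GFP/DsRed ratio, decoded by Illumina sequencing, PSI is the read-weighted mean bin number.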

With KNNICFMSHHQEELVPKQPQKRKP [SLC2A12], the protein stability index was 4.31 ± 0.14 under setting [1] and 4.64 ± 0.3 under setting [2].

Regarding KNSDGMEAAGVQIQMVNESLGYVR [CD207], the protein stability index under setting [1] amounted to 3.83 ± 0.28 and the protein stability index under setting [2] stood at 4.08 ± 0.13.

With KQLLNSAVIAQQRRKPDPPKDENE [DLC1], the protein stability index worked out at 5.35 ± 0.28 under setting [1] and 5.41 ± 0.12 under setting [2].

KQLNCVEISALNGNRINVPMVRKR [DLC1] yielded a protein stability index under setting [1] of 4.12 ± 0.24 and a protein stability index under setting [2] of 4.07 ± 0.3.

As for KQNKQVLGYCLLLMLAGMGLHYIA [DNAJC4], the protein stability index by setting is: under setting [1], 2.23 ± 0.31; under setting [2], 2.46 ± 0.37.

With KRDLLGALKYWKKAMNMRYSDRTN [FEM1C], the protein stability index runs as follows: under setting [1], 1.95 ± 0.25; under setting [2], 2.27 ± 0.33.

KRFTDAGFEHYDLFFIDGSTPSDN [CDC14A]: the protein stability index is, setting by setting: under setting [1], 3.45 ± 0.16; under setting [2], 3.45 ± 0.084.

As for KSIDDTSNFDDFPESDILQPVPNT [STK38L], the protein stability index is, setting by setting: under setting [1], 5.25 ± 0.24; under setting [2], 5.27 ± 0.077.

On to KSPQFNRYFYLLENIAWVKSYNIC [PDS5B], for which the protein stability index worked out at 2.17 ± 0.19 under setting [1] and 2.27 ± 0.14 under setting [2].

With KSSSLLTQTSEECNGILTEKMEEE [ZNF396], the protein stability index runs as follows: under setting [1], 5.56 ± 0.15; under setting [2], 5.54 ± 0.27.

In turn, KTAHDSNVLHVARLPNRQLISCSE [WDR41] gave a protein stability index under setting [1] of 3.6 ± 0.28 and a protein stability index under setting [2] of 3.57 ± 0.35.

Regarding KTFYKTADISQMLVCTADGDIHLS [TAF7L], the protein stability index under setting [1] was 2.47 ± 0.19 and the protein stability index under setting [2] came out at 2.41 ± 0.34.

Take KTLKAENAGLSSTAGLLREQVAQL [JUNB]: the protein stability index is 3.72 ± 0.38 under setting [1] and 4 ± 0.15 under setting [2].

Consider KTLQEIYRKYRKLIESELSYFVIV [FBXO39], for which the protein stability index runs as follows: under setting [1], 2.37 ± 0.41; under setting [2], 2.62 ± 0.55.

With KTRVDLKELGQSQKEQGLSDNILS [PDZK1], the protein stability index runs as follows: under setting [1], 4.55 ± 0.1; under setting [2], 4.88 ± 0.4.

As to KVKPAEAETAGAIMAFFLCLGLAL [SLC29A1], the protein stability index reads like this: under setting [1], 2.99 ± 0.62; under setting [2], 2.86 ± 0.71.

As to KVPAPKDVLAHQVPNAKKLRRKEQ [NOP53], the protein stability index turned out to be 4.76 ± 0.26 under setting [1] and 4.99 ± 0.17 under setting [2].

Take KVVHAVDGTAENGIHPLSSSEVDE [PALM]: the protein stability index by setting is: under setting [1], 5.25 ± 0.11; under setting [2], 5.47 ± 0.19.

As for KYREAARLEINVLKKIKEKDKENK [CLK3], the protein stability index by setting is: under setting [1], 4.45 ± 0.18; under setting [2], 4.25 ± 0.41.

Regarding LAALSATISFRIYKSVLQAVQKTD [RTN1], the protein stability index reads like this: under setting [1], 2.53 ± 0.76; under setting [2], 2.28 ± 0.54.

Regarding LAEYCVKTKAPAPDEGSDLFYDDY [CDC34], the protein stability index reads like this: under setting [1], 4.12 ± 0.24; under setting [2], 4.33 ± 0.41.

In the case of LAFRSGSDNLLVILKRKWWKYILL [SLC35F2], the protein stability index amounted to 2.58 ± 0.47 under setting [1] and 1.98 ± 0.54 under setting [2].

Turning to LAGTFHYYSCERAKKAMGYQPLVT [NSDHL], the protein stability index was 2.2 ± 0.12 under setting [1] and 2.27 ± 0.13 under setting [2].

As to LALLVLAHSSDVLENVFSSLTDDK [GOLPH3L], the protein stability index amounted to 2.85 ± 0.57 under setting [1] and 2.83 ± 0.49 under setting [2].

For the sequence LANSWNCLPKHLLHSVNQRFGSNN [KLHDC2], the protein stability index was 2.43 ± 0.33 under setting [1] and 2.3 ± 0.23 under setting [2].

On to LASQNKPLWQCYLGRFNDINVPIR [PDS5B], for which the protein stability index amounted to 2.03 ± 0.73 under setting [1] and 2.72 ± 0.058 under setting [2].

For LASYPLALVRTRMQAQASIEGAPE [SLC25A25], the protein stability index is, setting by setting: under setting [1], 4.03 ± 0.19; under setting [2], 4.18 ± 0.43.

Consider LAVAVPAVTSADSQFSQTTQAGS [LYSMD4], for which the protein stability index runs as follows: (treatment: DMSO, c terminus: native) 3.91 ± 0.64; (treatment: MLN4924 1 uM, 8 h, c terminus: native) 3.96 ± 0.32.

As for LAVMGYDRYIAICNPLRYSVLMGH [OR10K2], the protein stability index is 2.55 ± 0.28 under setting [1] and 2.58 ± 0.6 under setting [2].

In the case of LDKQMSRDEHRARAMKIPFTNDKI [NFE2L1], the protein stability index turned out to be 4.13 ± 0.32 under setting [1] and 4.28 ± 0.25 under setting [2].

Sequence LDLDSIIDEVRTQYEEIALKSKAE [KRT71] came in with a protein stability index under setting [1] of 3.91 ± 0.3 and a protein stability index under setting [2] of 4.21 ± 0.57.

As to LDLLLDMPPVSYDVQLLHSWNNND [SPSB1], the protein stability index by setting is: under setting [1], 2.66 ± 0.32; under setting [2], 2.65 ± 0.23.

With LDSDHRELIGDYSKAFLLQTVDGK [CDC25B], the protein stability index by setting is: under setting [1], 3.77 ± 0.061; under setting [2], 3.81 ± 0.2.

As for LDTVELATYCVRTFALYKNGSSEK [PTPRD], the protein stability index stood at 2.37 ± 0.042 under setting [1] and 2.55 ± 0.35 under setting [2].

Take LEENDETRFILSKVPSEAPSPMPT [SLC6A17]: the protein stability index runs as follows: under setting [1], 4.8 ± 0.15; under setting [2], 4.84 ± 0.17.

For LEGQDAKMIGFPSSAGSVSPRSTS [KRT13], the protein stability index stood at 5.18 ± 0.16 under setting [1] and 5.152 ± 0.026 under setting [2].

For the sequence LEGQSGVTIKHVACGDFFTACLTD [NEK8], the protein stability index by setting is: under setting [1], 2.75 ± 0.28; under setting [2], 2.89 ± 0.47.

For the sequence LEISPDCSQYDRVYCGAGVQKEHE [PCMTD2], the protein stability index reads like this: under setting [1], 4.56 ± 0.3; under setting [2], 4.44 ± 0.21.

With LEQFLAILPKELQAWVQKHHPENG [ZNF396], the protein stability index reads like this: under setting [1], 2.63 ± 0.14; under setting [2], 2.79 ± 0.24.

With LEQRSESVRRTRSKIGFGILLSKE [SMAD6], the protein stability index by setting is: under setting [1], 3.51 ± 0.27; under setting [2], 3.5 ± 0.3.

Take LERGRASLIFSLKNEVGGLIKALK [TPH1]: the protein stability index is 3.37 ± 0.36 under setting [1] and 2.36 ± 0.61 under setting [2].

As to LFPPKAKSNQPKSLEDLIFESLPE [ATE1], the protein stability index was 3 ± 0.055 under setting [1] and 3.66 ± 0.59 under setting [2].

LFVADAYKGLFEVNPWKREVKLLL [APMAP] displayed a protein stability index under setting [1] of 2.56 ± 0.27 and a protein stability index under setting [2] of 2.34 ± 0.9.

LGAEIRNGMAIIRPPGHHAQHSLM [HDAC6] displayed a protein stability index under setting [1] of 2.92 ± 0.096 and a protein stability index under setting [2] of 2.99 ± 0.26.

For the sequence LGAGSDLKDFTLNETVNSIFAQGA [ADAMTSL2], the protein stability index runs as follows: under setting [1], 3.12 ± 0.2; under setting [2], 3.28 ± 0.35.

Turning to LGGYVKIDLATWNFQFLPQVNGHP [PTPN9], the protein stability index is, setting by setting: under setting [1], 2.92 ± 0.57; under setting [2], 2.74 ± 0.86.

For LGHAVLPSNARGPILSRSTSTGSA [SPRY1], the protein stability index under setting [1] was determined as 3.93 ± 0.18 and the protein stability index under setting [2] is 4.15 ± 0.098.

On to LGPSPQRDPQAVKERALSAPWLSL [ZNF263], for which the protein stability index reads like this: under setting [1], 2.72 ± 0.14; under setting [2], 2.77 ± 0.29.

Consider LGRFNDINVPIRLECVKFASHCLM [PDS5B], for which the protein stability index is 2.83 ± 1.6 under setting [1] and 2.41 ± 0.94 under setting [2].

Turning to LGTAIFIEADRRRAQLHVQGLLHE [SPNS1], the protein stability index runs as follows: under setting [1], 2.46 ± 0.36; under setting [2], 2.17 ± 0.31.

As to LGTENLHLIFSYSVWVLRDFPEDG [VPS39], the protein stability index turned out to be 2.94 ± 0.46 under setting [1] and 2.74 ± 0.7 under setting [2].

On to LGTRESDTEVITVEKSSPATSLFV [BCL2L13], for which the protein stability index runs as follows: under setting [1], 3.84 ± 0.15; under setting [2], 4.04 ± 0.12.
